From article PMC7993993

Target: T1, His6-PomZ (M. xanthus) (UniProt Q1DEM0)
T1 sequence: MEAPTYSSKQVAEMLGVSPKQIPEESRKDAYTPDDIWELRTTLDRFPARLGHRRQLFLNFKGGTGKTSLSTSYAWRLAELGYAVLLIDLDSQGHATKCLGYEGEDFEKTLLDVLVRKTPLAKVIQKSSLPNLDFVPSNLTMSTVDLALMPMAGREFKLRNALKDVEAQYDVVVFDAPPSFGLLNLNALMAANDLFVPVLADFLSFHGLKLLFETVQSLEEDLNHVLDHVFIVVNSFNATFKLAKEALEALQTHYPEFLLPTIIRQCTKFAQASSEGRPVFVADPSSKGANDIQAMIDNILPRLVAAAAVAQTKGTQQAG

MKKAFEQNVSRAKPRLRLGALT [PomX^NPEP peptide]
His6-PomZ ATPase activity (NADH-coupled assay, 1 mM ATP, 32°C) with DNA, PomX^NPEP peptide up to 15 µM, 4 µM His6-PomZ: 27 ATP hr^−1
